The results in this text go back to publication PMC5024299.

The test system of the data set is Pho4 (Saccharomyces cerevisiae). Kind of data set: SELMAP (microfluidic SELEX-seq). The settings on record: last round; On-chip SELMAP: 71-bp dsDNA library (20 ul, 50 uM) flowed 20 min over immobilised TF, MITOMI trapping, DNase 200 U/mL, PBS wash; binding buffer, pH and ….

Consider “Pho4 consensus 6-mer CACGTG in 12-mer library”, for which the binding signal (frequency ratio score) came out at 220.
